Source: article PMC2562697

Target: MutSα subunit MSH2-His6;MutSα subunit MSH6 (human;human, UniProt P43246;P52701 1-934;1-1360, |)
Assay: EMSA

B1: G:T mismatch 35 bp (dsDNA)
DNA 1: GTGGATCCCCCGGGCTGCGGGAATTCGATATCAAG
DNA 2: CTTGATATCGAATTCCTGCAGCCCGGGGGATCCAC
Does B1 bind?
Result: binds
